Assay results: article PMC4872126

Columns and labels:
Test in all cases: fluorescence anisotropy
Details in all cases: 50 mM Tris-HCl pH 8.0, 50 mM NaCl, 1 mM DTT, 25 C; 200 nM protein, 5 nM 3'-fluorescein DNA
BLM642-1290 (human) = BLM642-1290 (human) (UniProt P54132)
BLM full-length (human) = BLM full-length (human) (UniProt P54132)
[1] = target: RecQ E. coli (Escherichia coli) (UniProt P15043)
Chain of RecQ E. coli (Escherichia coli) (P15043 whole entry): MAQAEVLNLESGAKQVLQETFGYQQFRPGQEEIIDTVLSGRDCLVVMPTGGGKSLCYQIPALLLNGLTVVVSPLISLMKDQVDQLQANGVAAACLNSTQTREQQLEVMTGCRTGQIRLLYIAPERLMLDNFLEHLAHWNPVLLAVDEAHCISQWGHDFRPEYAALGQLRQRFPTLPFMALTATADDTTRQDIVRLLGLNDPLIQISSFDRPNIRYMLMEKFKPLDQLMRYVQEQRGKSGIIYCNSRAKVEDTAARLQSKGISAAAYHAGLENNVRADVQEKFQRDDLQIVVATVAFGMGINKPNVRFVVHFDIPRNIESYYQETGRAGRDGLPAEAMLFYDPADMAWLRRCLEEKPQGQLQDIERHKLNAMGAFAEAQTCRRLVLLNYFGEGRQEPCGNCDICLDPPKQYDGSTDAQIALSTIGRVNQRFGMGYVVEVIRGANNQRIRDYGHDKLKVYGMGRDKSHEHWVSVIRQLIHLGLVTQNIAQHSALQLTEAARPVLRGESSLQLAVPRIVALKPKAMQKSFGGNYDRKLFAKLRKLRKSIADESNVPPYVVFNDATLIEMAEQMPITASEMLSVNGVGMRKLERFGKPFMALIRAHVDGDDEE

Chain of BLM full-length (human) (P54132 whole entry): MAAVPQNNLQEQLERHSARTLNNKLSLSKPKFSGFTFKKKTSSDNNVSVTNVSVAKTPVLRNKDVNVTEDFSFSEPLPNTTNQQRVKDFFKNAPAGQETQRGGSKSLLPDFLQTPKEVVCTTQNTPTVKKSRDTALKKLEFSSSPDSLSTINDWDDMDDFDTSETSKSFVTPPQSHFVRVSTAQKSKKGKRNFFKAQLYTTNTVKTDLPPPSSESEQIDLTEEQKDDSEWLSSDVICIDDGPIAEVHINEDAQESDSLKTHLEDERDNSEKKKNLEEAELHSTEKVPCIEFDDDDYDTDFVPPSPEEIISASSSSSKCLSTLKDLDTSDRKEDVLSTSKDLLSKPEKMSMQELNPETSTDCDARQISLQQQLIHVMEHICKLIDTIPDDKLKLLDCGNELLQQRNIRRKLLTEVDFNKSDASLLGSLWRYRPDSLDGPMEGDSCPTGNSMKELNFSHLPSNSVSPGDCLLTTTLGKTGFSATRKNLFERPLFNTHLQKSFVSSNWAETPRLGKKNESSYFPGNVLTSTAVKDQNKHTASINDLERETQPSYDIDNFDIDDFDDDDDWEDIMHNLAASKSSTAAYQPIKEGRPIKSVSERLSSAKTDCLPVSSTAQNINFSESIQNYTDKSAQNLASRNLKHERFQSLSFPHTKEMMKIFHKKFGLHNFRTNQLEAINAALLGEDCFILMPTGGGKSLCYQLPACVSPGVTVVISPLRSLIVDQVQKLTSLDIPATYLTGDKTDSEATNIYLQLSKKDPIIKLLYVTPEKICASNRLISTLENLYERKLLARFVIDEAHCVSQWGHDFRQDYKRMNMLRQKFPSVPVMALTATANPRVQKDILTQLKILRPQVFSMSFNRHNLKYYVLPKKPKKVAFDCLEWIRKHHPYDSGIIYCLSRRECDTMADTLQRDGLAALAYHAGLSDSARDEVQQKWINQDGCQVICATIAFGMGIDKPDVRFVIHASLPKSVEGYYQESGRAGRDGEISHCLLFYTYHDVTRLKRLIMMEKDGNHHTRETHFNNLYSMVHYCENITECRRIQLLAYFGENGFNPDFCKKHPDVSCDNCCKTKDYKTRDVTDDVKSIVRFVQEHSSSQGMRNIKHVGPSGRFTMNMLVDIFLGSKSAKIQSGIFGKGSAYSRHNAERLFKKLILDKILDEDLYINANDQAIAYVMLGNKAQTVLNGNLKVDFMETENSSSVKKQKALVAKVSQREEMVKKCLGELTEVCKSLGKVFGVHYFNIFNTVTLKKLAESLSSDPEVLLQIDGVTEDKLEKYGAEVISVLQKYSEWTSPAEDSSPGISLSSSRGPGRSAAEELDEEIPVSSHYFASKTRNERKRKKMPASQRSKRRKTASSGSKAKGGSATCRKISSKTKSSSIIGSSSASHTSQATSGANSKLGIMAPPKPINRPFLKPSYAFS
Chain of BLM642-1290 (human) (P54132 642-1290): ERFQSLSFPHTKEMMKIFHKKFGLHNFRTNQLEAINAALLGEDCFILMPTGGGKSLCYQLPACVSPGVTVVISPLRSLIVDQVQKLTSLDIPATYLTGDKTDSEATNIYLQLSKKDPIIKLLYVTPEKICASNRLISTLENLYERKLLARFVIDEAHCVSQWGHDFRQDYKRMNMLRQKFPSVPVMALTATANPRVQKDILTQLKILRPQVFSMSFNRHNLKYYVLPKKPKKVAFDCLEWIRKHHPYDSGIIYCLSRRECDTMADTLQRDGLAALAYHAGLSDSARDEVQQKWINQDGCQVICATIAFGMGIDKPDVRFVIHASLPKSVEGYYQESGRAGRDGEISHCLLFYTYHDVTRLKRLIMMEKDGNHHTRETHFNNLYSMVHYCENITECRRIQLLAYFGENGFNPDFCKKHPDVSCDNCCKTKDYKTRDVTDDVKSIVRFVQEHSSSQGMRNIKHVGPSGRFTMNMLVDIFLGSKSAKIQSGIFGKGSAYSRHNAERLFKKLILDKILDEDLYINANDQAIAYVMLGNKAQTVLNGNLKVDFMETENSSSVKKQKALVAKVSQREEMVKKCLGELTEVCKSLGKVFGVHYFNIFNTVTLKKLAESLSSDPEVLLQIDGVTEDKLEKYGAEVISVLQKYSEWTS

## GCCCTGCTGCCGACCAACGAAGGT (double strand) [F-24 ds]
BLM642-1290 (human)
  IC50: 8.17 µM
BLM full-length (human)
  IC50: 6.84 µM
[1]
  IC50: 44.1 µM
